Test results as given in PMC8458281, “Computational modeling and experimental validation of the EPI-X4/CXCR4 complex allows rational design of small peptide antagonists” (Communications Biology, 2021).

Columns and labels:
Assay in all cases: flow cytometry on cells; 12G5 antibody competition on 293T cells transiently transfected with CXCR4 wt or mutants (IRES-eGFP vector), eGFP-positive cells gated; serially diluted peptide with a constant concentration of CXCR4 antibody clone 12G5, 2 h; bound antibody read; IC50 by nonlinear regression
Conditions in all cases: one partner purified
CXCR4 D97N = target: T1, CXCR4 D97N (human, UniProt P61073-1 1-352, D97N)
T1 construct: human CXCR4, isoform 1 or b; source: 293T cells, transiently transfected (pcDNA3.1 CXCR4-IRES-eGFP), on cells

[1] = target: T2, CXCR4 wt (transfected 293T cells) (human, UniProt P61073-1 1-352)
T2 construct: human CXCR4, isoform 1 or b; eGFP is expressed separately from an IRES, not fused; also called wild-type CXCR4; source: 293T cells, transiently transfected (pcDNA3.1 CXCR4-IRES-eGFP), on cells

CXCR4 V112A = target: T3, CXCR4 V112A (human, UniProt P61073-1 1-352, V112A)
T3 construct: human CXCR4, isoform 1 or b; source: 293T cells, transiently transfected (pcDNA3.1 CXCR4-IRES-eGFP), on cells

CXCR4 E277A = target: T4, CXCR4 E277A (human, UniProt P61073-1 1-352, E277A)
T4 construct: human CXCR4, isoform 1 or b; source: 293T cells, transiently transfected (pcDNA3.1 CXCR4-IRES-eGFP), on cells

CXCR4 D262A = target: T5, CXCR4 D262A (human, UniProt P61073-1 1-352, D262A)
T5 construct: human CXCR4, isoform 1 or b; source: 293T cells, transiently transfected (pcDNA3.1 CXCR4-IRES-eGFP), on cells

CXCR4 D97E + V112A = target: T6, CXCR4 D97E + V112A (human, UniProt P61073-1 1-352, D97E | V112A)
T6 construct: human CXCR4, isoform 1 or b; also called D97E plus V112A; source: 293T cells, transiently transfected (pcDNA3.1 CXCR4-IRES-eGFP), on cells

CXCR4 D97T = target: T7, CXCR4 D97T (human, UniProt P61073-1 1-352, D97T)
T7 construct: human CXCR4, isoform 1 or b; source: 293T cells, transiently transfected (pcDNA3.1 CXCR4-IRES-eGFP), on cells

CXCR4 D187E = target: T8, CXCR4 D187E (human, UniProt P61073-1 1-352, D187E)
T8 construct: human CXCR4, isoform 1 or b; source: 293T cells, transiently transfected (pcDNA3.1 CXCR4-IRES-eGFP), on cells

CXCR4 V112L = target: T9, CXCR4 V112L (human, UniProt P61073-1 1-352, V112L)
T9 construct: human CXCR4, isoform 1 or b; source: 293T cells, transiently transfected (pcDNA3.1 CXCR4-IRES-eGFP), on cells

CXCR4 D97E = target: T10, CXCR4 D97E (human, UniProt P61073-1 1-352, D97E)
T10 construct: human CXCR4, isoform 1 or b; source: 293T cells, transiently transfected (pcDNA3.1 CXCR4-IRES-eGFP), on cells

CXCR4 D97Q = target: T11, CXCR4 D97Q (human, UniProt P61073-1 1-352, D97Q)
T11 construct: human CXCR4, isoform 1 or b; source: 293T cells, transiently transfected (pcDNA3.1 CXCR4-IRES-eGFP), on cells

[2] = target: T12, CXCR4 D97E + V112A + L41A (human, UniProt P61073-1 1-352, L41A | D97E | V112A)
T12 construct: human CXCR4, isoform 1 or b; also called L41A plus D97E plus V112A; source: 293T cells, transiently transfected (pcDNA3.1 CXCR4-IRES-eGFP), on cells

CXCR4 L41A = target: T13, CXCR4 L41A (human, UniProt P61073-1 1-352, L41A)
T13 construct: human CXCR4, isoform 1 or b; source: 293T cells, transiently transfected (pcDNA3.1 CXCR4-IRES-eGFP), on cells
T13 sequence (P61073 whole entry L41A, canonical isoform): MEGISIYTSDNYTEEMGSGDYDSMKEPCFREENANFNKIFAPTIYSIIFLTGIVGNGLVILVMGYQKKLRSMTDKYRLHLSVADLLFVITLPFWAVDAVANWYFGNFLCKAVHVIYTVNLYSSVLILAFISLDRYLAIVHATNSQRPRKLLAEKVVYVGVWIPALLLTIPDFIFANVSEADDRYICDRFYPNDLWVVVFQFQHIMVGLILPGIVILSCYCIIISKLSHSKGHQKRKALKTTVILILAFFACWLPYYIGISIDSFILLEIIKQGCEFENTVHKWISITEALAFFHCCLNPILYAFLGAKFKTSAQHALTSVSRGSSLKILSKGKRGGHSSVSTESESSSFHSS

T2 sequence (P61073 whole entry, the tested form may be a part, canonical isoform): as the sequence (P61073 whole entry L41A, canonical isoform) above, with A41L counted along it
T10 sequence (P61073 whole entry D97E, canonical isoform): as the sequence (P61073 whole entry L41A, canonical isoform) above, with A41L, D97E counted along it
T12 sequence (P61073 whole entry L41A/D97E/V112A, canonical isoform): as the sequence (P61073 whole entry L41A, canonical isoform) above, with D97E, V112A counted along it
T8 sequence (P61073 whole entry D187E, canonical isoform): as the sequence (P61073 whole entry L41A, canonical isoform) above, with A41L, D187E counted along it
T6 sequence (P61073 whole entry D97E/V112A, canonical isoform): as the sequence (P61073 whole entry L41A, canonical isoform) above, with A41L, D97E, V112A counted along it
T9 sequence (P61073 whole entry V112L, canonical isoform): as the sequence (P61073 whole entry L41A, canonical isoform) above, with A41L, V112L counted along it
T7 sequence (P61073 whole entry D97T, canonical isoform): as the sequence (P61073 whole entry L41A, canonical isoform) above, with A41L, D97T counted along it
T5 sequence (P61073 whole entry D262A, canonical isoform): as the sequence (P61073 whole entry L41A, canonical isoform) above, with A41L, D262A counted along it
T11 sequence (P61073 whole entry D97Q, canonical isoform): as the sequence (P61073 whole entry L41A, canonical isoform) above, with A41L, D97Q counted along it
T1 sequence (P61073 whole entry D97N, canonical isoform): as the sequence (P61073 whole entry L41A, canonical isoform) above, with A41L, D97N counted along it
T3 sequence (P61073 whole entry V112A, canonical isoform): as the sequence (P61073 whole entry L41A, canonical isoform) above, with A41L, V112A counted along it
T4 sequence (P61073 whole entry E277A, canonical isoform): as the sequence (P61073 whole entry L41A, canonical isoform) above, with A41L, E277A counted along it

B1: EPI-X4 (Alb408-423) (peptide)
peptide: LVRYTKKVPQVSTPTL
notes: source: synthetic peptide (Fmoc solid-phase synthesis, HPLC-purified)
B1 was tested, and the IC50 (CXCR4 D97N) was > 1000 µM, the IC50 [1] was 6.99 µM and the IC50 (CXCR4 V112A) was 11 µM. For the same binder, the IC50 (CXCR4 E277A) was 8.91 µM, the IC50 (CXCR4 D262A) was 5.21 µM and the IC50 (CXCR4 D97E + V112A) was 18 µM. For the same binder, the IC50 (CXCR4 D97T) was > 1000 µM, the IC50 (CXCR4 D187E) was 8.52 µM and the IC50 (CXCR4 V112L) was 41.1 µM. For the same binder, the IC50 (CXCR4 D97E) was 129 µM, the IC50 (CXCR4 D97Q) was > 1000 µM and the IC50 [2] was 48.4 µM. It also gave an IC50 (CXCR4 L41A) of 132 µM.
